The target of the test is CD4 (human) (UniProt P01730). The test is described as follows: cell-based or functional assay.

With “HIV-1 envelope glycoprotein (Env) (from UniProt P04578 33-856)”, the transduction (mNeonGreen+) of CD4+ cells in a mixture of CD4+ and CD8+ primary human T cells treated with Env-Cas9-VLPs, highest treatment dose stood at 53.2%.

Source of the values: patent US20260146247A1.
